Experiments:
[1] = substrate: NC(=O)c1ccc[n+]([C@@H]2O[C@H](COP(=O)(O)OP(=O)(O)OC[C@H]3O[C@@H](n4cnc5c(N)ncnc54)[C@H](O)[C@@H]3O)[C@@H](O)[C@H]2O)c1; assay: purified protein; conditions: co-substrate phosphite, 100 mM MOPS pH 7.25, 30 °C
[2] = substrate: O=[PH](O)O; assay: purified protein; conditions: co-substrate NAD+, 100 mM MOPS pH 7.25, 30 °C

| Protein | Km [1] | kcat [1] | Km [2] | kcat [2] |
| --- | --- | --- | --- | --- |
| wt-PTDH (P. stutzeri) (Stutzerimonas stutzeri) (protein) MLPKLVITHRVHDEILQLLAPHCELMTNQTDSTLTREEILRRCRDAQAMMAFMPDRVDADFLQACPELRVVGCALKGFDNFDVDACTARGVWLTFVPDLLTVPTAELAIGLAVGLGRHLRAADAFVRSGEFQGWQPQFYGTGLDNATVGILGMGAIGLAMADRLQGWGATLQYHEAKALDTQTEQRLGLRQVACSELFASSDFILLALPLNADTQHLVNAELLALVRPGALLVNPCRGSVVDEAAVLAALERGQLGGYAADVFEMEDWARADRPRLIDPALLAHPNTLFTPHIGSAVRAVRLEIERCAAQNIIQVLAGARPINAANRLPKAEPAAC | 52.2 (3.3) μM | 6.57 (0.03) s^-1 | 81.1 (1.6) μM | 6.57 (0.03) s^-1 |
| PTDH ortholog from R. metallidurans (Cupriavidus metallidurans CH34) (protein) MNHRKIVVTQPVHEEVLRKLQAEGEVIMNPGPDPWSPSQLREYLVDADAMMAFMTDSVTKESLLNAPRLKTISCALKGYDNFDLRACAQAGVSVTFVPDLLTEPTAELAIGLAIAAGRNVLQGDAATRAGYSGWRPALYGTGLHGSVASVIGLGKVGQAILARLAGFGCARLLGVDPSVRLDQVELVTLDEAVSTSDYVFLAVPLVSDTRHLVDSRMLQLSKKGQILVNVGRGSVVDERAVVDALANEQLGAYAADVYEMEDWLLPDRPREIHPGLTNNARTVLTPHIGSAVRRVRFEIEMRAAENLVRSLRGESLSDVAVEASAAA | 4.5 (0.9) μM | 6.83 (0.43) s^-1 | 54.9 (6.8) μM | 6.83 (0.43) s^-1 |
| PTDH ortholog from N. punctiforme (Nostoc punctiforme PCC 73102) (protein) MKPKVVITHWVHPEIITNLSEYCEVVANPTRETLPREEILKLAQDAEALMVFMPDRIDEAFLKACPKLKIIAGALKGYDNFDVDACTRQGIWFTIVPSLLAVPTAELTIGLIIGLARQMLLGDRLIRQGTFAGWRPHLYGMGLANRTLGIVGMGSLGQALAQRLSSFEMNLIYTDAIPLPKEKAAAWCLSQVSLDTLLATSDFVVLMVPLQPETFHLINEKSLARMKPGSFLINPCRGSVVDEQAVSDALASGHLAGYAADVFELEDWARSDRPSKIPPSLLEKQDQTFFTPHLGSAVDDLRYDIAIEASQNILQVLQGHSPQGAINCPS | 19.4 (1.6) μM | 3.36 (0.03) s^-1 | 25.4 (1.2) μM | 3.36 (0.03) s^-1 |
